± gives the standard deviation of the averaged measurements.
Tested on: Saccharomyces cerevisiae
Assay: protein stability index of tFT-peptide fusion (C-terminal peptide) (PSI (0-1 scale)); higher = more stable (slower turnover)
Conditions: temperature: 30 C
Protocol: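 MPS profiling in S. cerevisiae of the yeast C-terminome library: the last 12 aa of each annotated ORF are fused to the C-terminus of a sfGFP-mCherry timer, after a GGGS linker. Cells are FACS-sorted into 8 mCherry/sfGFP bins and deep-sequenced. PSI runs from 0 (unstable) to 1 (stable); wild type and das1Δ backgrounds, two technical replicates each.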

[1] = genetic background: das1 deletion

Sequence | protein stability index [1] | protein stability index (genetic background: wild type)
IVRPLELKYFGR [FCY22 C-terminal 12 aa] | 0.7236 ± 0.0033 | 0.688 ± 0.04
GSEIDFTDYLGP [PUT3 C-terminal 12 aa] | 0.729 ± 0.012 | 0.716 ± 0.017
LIAEILLARNLI [HOM2 C-terminal 12 aa] | 0.71 ± 0.0084 | 0.662 ± 0.007
AESDDKSDNYGA [PRP45 C-terminal 12 aa] | 0.689 ± 0.032 | 0.717 ± 0.036
NQKNEDLSDIKL [UTP30 C-terminal 12 aa] | 0.658 ± 0.019 | 0.755 ± 0.13
LVVARDMLLASL [SPC25 C-terminal 12 aa] | 0.6474 ± 0.0048 | 0.624 ± 0.024
NYLFKLMGPSSD [VTC2 C-terminal 12 aa] | 0.687 ± 0.032 | 0.655 ± 0.008
MAEKQIASEFNY [DBP7 C-terminal 12 aa] | 0.721 ± 0.012 | 0.662 ± 0.0067
QMQQMAKQFGMG [SRP54 C-terminal 12 aa] | 0.6863 ± 0.0024 | 0.68513 ± 0.00031
PISHVNNNDTHA [SLM3 C-terminal 12 aa] | 0.727 ± 0.014 | 0.688 ± 0.0079
FIRFAINIHTFI [YJL009W C-terminal 12 aa] | 0.46 ± 0.0057 | 0.377 ± 0.011
RVKILHRDDTKK [UPF3 C-terminal 12 aa] | 0.707 ± 0.024 | 0.732 ± 0.093
RSRKWKRRLFHL [PEX32 C-terminal 12 aa] | 0.825 ± 0.038 | 0.6 ± 0.12
KKMEARGQSIWV [RPN9 C-terminal 12 aa] | 0.713 ± 0.0075 | 0.6728 ± 0.0014
QEGGDNTKIKQN [RNP1 C-terminal 12 aa] | 0.731 ± 0.023 | 0.638 ± 0.024
NNQPHYRDQLLQ [REI1 C-terminal 12 aa] | 0.6976 ± 0.0028 | 0.706 ± 0.048
SQDDSILSSDPF [NIS1 C-terminal 12 aa] | 0.715 ± 0.015 | 0.666 ± 0.014
DKLGFLDRRRNE [COI1 C-terminal 12 aa] | 0.683 ± 0.036 | 0.668 ± 0.043
FSFSIFFFFCLA [YFR035C C-terminal 12 aa] | 0.291 ± 0.017 | 0.285 ± 0.0066
KHVSGKILGFVY [RPS22A C-terminal 12 aa] | 0.631 ± 0.045 | 0.63 ± 0.02
YHKLVDEVFQHL [MPA43 C-terminal 12 aa] | 0.71092 ± 0.00027 | 0.688 ± 0.016

Sequence | protein stability index [1] | protein stability index (genetic background: wild type)
VHKLGWSLSFDA [POR1 C-terminal 12 aa] | 0.706 ± 0.022 | 0.6642 ± 0.0033
IAKRFAKALGRS [ARN2 C-terminal 12 aa] | 0.711 ± 0.0084 | 0.695 ± 0.016
KGDGKFWSSKKD [OM45 C-terminal 12 aa] | 0.709 ± 0.0022 | 0.6744 ± 0.0029
PRERLLSEYCSS [MET8 C-terminal 12 aa] | 0.71885 ± 0.00032 | 0.7199 ± 0.0033
QLINGRKIIAGN [MOT2 C-terminal 12 aa] | 0.6718 ± 0.0014 | 0.7 ± 0.09
AAANILFSDHAD [RAD23 C-terminal 12 aa] | 0.739 ± 0.032 | 0.733 ± 0.032
KHIDYRHAPGNI [RRN10 C-terminal 12 aa] | 0.6875 ± 0.0066 | 0.69587 ± 0.00057
TEISRHFIVVFV [YHR182C-A C-terminal 12 aa] | 0.306 ± 0.0088 | 0.351 ± 0.028
EDVEVPFITIHL [UBA1 C-terminal 12 aa] | 0.6884 ± 0.0057 | 0.683 ± 0.017
LQKFYLQVSTIS [YFR054C C-terminal 12 aa] | 0.456 ± 0.0082 | 0.456 ± 0.0082
IYKEKYMKQGPK [DSF2 C-terminal 12 aa] | 0.701 ± 0.071 | 0.701 ± 0.084
LVYENVRVPRYL [IFM1 C-terminal 12 aa] | 0.697 ± 0.015 | 0.6639 ± 0.0064
VVKRKKVKTKRI [JJJ1 C-terminal 12 aa] | 0.689 ± 0.041 | 0.748 ± 0.14
QQGGAGADQKTE [EMC10 C-terminal 12 aa] | 0.6815 ± 0.0066 | 0.656 ± 0.028
FWNCVDGHLKYD [INM1 C-terminal 12 aa] | 0.724 ± 0.0075 | 0.715 ± 0.043
MERLQKGWSLAK [MDY2 C-terminal 12 aa] | 0.71 ± 0.043 | 0.684 ± 0.02
SCRTTPQVRARA [YLR279W C-terminal 12 aa] | 0.6944 ± 0.0046 | 0.6946 ± 0.0043
GLLFDKKKKARK [NOP19 C-terminal 12 aa] | 0.687 ± 0.012 | 0.691 ± 0.043
VSIKKLGRKLEN [FYV6 C-terminal 12 aa] | 0.727 ± 0.023 | 0.6469 ± 0.0013
HELIKKRWDDRK [NCE101 C-terminal 12 aa] | 0.712 ± 0.016 | 0.679 ± 0.018

Source: the supplement of paper PMC10724198
